{"source": "patent US20110024630A1", "about": "“System, Device, and Methods for Real-Time Screening of Live Cells, Biomarkers, and Chemical Signatures” (BATTELLE MEMORIAL INSTITUTE, priority 2009, published 2011)", "test_system": "JB6 carcinogenesis mouse endothelial model cells", "experiment": "Real-time ATR-FTIR monitoring of confluent cells treated with tumor promoter (bFGF)", "assay_type": "cell-based", "conditions": "72-hour time point, bFGF added at 48 hours", "protocol": "Spent media was replaced with fresh media at 24-hour intervals. Cells were confluent at 24 hours and had attached to the ATR substrate. […] The 1604 cm^−1 band also contains a broad water band which is observed at the 6.5 hour time point where there is greater media contact with the ATR substrate due to a non-confluent cell monolayer. […] Tyrosine aromatic rings absorb in the 1508 cm^−1 region and the symmetric carboxylate stretching vibrations are reflected in the band at 1452 cm^−1. Overall, data reflect the ability to obtain spectra over a period of days which show the attachment of cells to the substrate and a response to perturbation.\nMouse cells (JB6 carcinogenesis mouse endothelial model cells) (clone 41-5a, ATCC, Manassas, Va., USA) were maintained in a minimal essential medium (MEM+GlutaMAX-I™, CISCO, Grand Island, N.Y.) supplemented with 5% fetal bovine serum (FBS) (Atlanta Biologicais, Norcross, Ga.) that further included: 1% penicillin/streptomycin (GIBCO, Grand Island, N.Y.) and an additional 1%. GlutaMAX-I™ (GIBCO, Grand Island, N.Y.). Cells were maintained at 37° C. and 5% CO2 in an incubator (e.g., a ThermoForma Series II Water Jacketed CO2 incubator. Thermo Fisher Scientific, inc., Waltham, Mass.) equipped with a HEPA filter. The JB6 cells were subcultured at 70-80% confluency following standard protocols. […]"}
{"substance": "basic fibroblast growth factor [bFGF]", "values": [{"measurement": "cell outcome to which spectral results are attributed", "result": "cell death"}, {"measurement": "1696 cm^-1 amide peak", "setting": "FIG. 7b", "result": "increased intensity and has broadened"}]}
